The values below come from paper doi:10.1101/2021.04.13.439745.

The target of the experiment is T1, Pil1-mCherry-Atg38(161-190) (S. pombe), O94427.
T1 chain: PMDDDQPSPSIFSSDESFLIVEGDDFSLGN
The following applies: remark: other sources report otherwise.

B1: GFP-Atg8^(P52A R67A), O94272 1-116 (natural protein)
chain: MRSQFKDDFSFEKRKTESQRIREKYPDRIPVICEKVDKSDIAAIDKKKYLVASDLTVGQFVYVIRKAIKLSPEKAIFIFIDEILPPTAALMSTIYEEHKSEDGFLYITYSGENTFG
In the case of B1, the PCC (Pearson correlation coefficient of colocalisation) stood at 0.42.
